We go through one molecule from patent US11857697B2, “Compositions and methods for obtaining 3-dimensional lung-like epithelium and related uses thereof” (THE REGENTS OF THE UNIVERSITY OF MICHIGAN, priority 2017, dated 2024).

“Also recorded” adds a separate entry of the source.

Experiment [1] relates to 12 week human fetal distal epithelial lung buds. The experiment can be described thus: Isolated human fetal lung bud culture in Matrigel: growth/expansion. Type of experiment: cell-based. Particulars: FGF7 alone, 2, 4 and 6 weeks in culture. The text has this: All research utilizing human fetal tissue was approved by the University of Michigan institutional review board. Normal human fetal lungs were obtained from the University of Washington Laboratory of Developmental Biology, and epithelial lung buds were dissected as described below. All experiments were repeated using tissues from 3 individual lungs; 84 day post fertilization of unknown gender, 87 day post fertilization male, and 87 day post fertilization of unknown gender. All tissues were shipped in Belzer's solution at 4 degrees Celsius and were processed and in culture within 24 hours of isolation.
(§1) Isolated mouse buds were cultured in 4-6 μl droplets of matrigel, covered with media, and kept at 37 degrees Celsius with 5% Carbon Dioxide. Isolated human fetal lung buds were cultured in 25-50 μl droplets of matrigel, covered with media, and kept at 37 degrees Celsius with 5% Carbon Dioxide.
Distal regions of 12 week fetal lungs were cut into ˜2 mm sections and incubated with dispase, 100% FBS and then 10% FBS as described above, and moved to a sterile petri dish. Mesenchyme was removed by repeated pipetting of distal lung pieces after dispase treatment. Buds were washed with DMEM until mesenchymal cells were no longer visible in the media. Buds were then moved to a 1.5 mL eppendorf tube containing 200 uL of Matrigel, mixed using a p200 pipette, and plated in ˜20 uL droplets in a 24 well tissue culture plate. Plates were placed at 37 degrees Celsius with 5% CO2 for 20 minutes while droplets solidified. 500 uL of media was added to each well containing a droplet. Media was changed every 2-3 days.
All mouse bud, human fetal bud, and hPSC-derived human lung organoids were grown in low-serum basal media (basal media) with added growth factors. […]

The test system of experiment [2] is E13.5 mouse distal epithelial lung buds. The experiment can be described thus: Isolated E13.5 mouse distal lung bud culture in Matrigel droplet: growth/expansion. Type of experiment: cell-based. As to the method: as §1
Mouse buds were dissected from E13.5 embryos. For experiments using Sox9CreER; Rosa^Tomato/Tomato mice, 50 ug/g of tamoxifen was dissolved in corn oil and given by oral gavage on E12.5, 24 hours prior to dissection. Briefly, in sterile environment, whole lungs were placed in 100% dispase (Corning Cat#354235) on ice for 30 minutes. Lungs were then transferred using a 25 uL wiretrol tool (Drummond Scientific Cat#S5-000-2050) to 100% FBS (Corning Cat#35-010-CV) on ice for 15 minutes, and then transferred to a solution of Dulbecco's Modified Eagle Medium: Nutrient Mixture F12 (DMEM/F12, ThermoFisher SKU#12634-010) with 10% FBS and 1× Pennicillin-Streptomycin (ThermoFisher Cat#15140122) on ice. To dissect buds, a single lung or lung lobe was transferred by wiretrol within a droplet of media to a 100 mm sterile petri dish. Under a dissecting microscope, the mesenchyme was carefully removed and epithelial bud tips were torn away from the bronchial tree using tungsten needles (Point Technologies, Inc.). Care was taken to remove the trachea and any connective tissue from dissected lungs. Isolated bud tips were picked up using a p20 pipette and added to an eppendorf tube with cold Matrigel (Corning Ref#354248) on ice. The buds were picked up in a p20 pipette with 4-6 uL of Matrigel and plated on a 24-well tissue culture well (ThermoFisher Cat#142475). The plate was moved to a tissue culture incubator and incubated for 5 minutes at 37 degrees Celsius and 5% CO2 to allow the Matrigel droplet to solidify. 500 uL of media was then added to the dish in a laminar flow hood. Media was changed every 2-3 days.
All mouse bud, human fetal bud, and hPSC-derived human lung organoids were grown in low-serum basal media (basal media) with added growth factors. Basal media consisted of Dulbecco's Modified Eagle Medium: Nutrient Mixture F12 (DMEM/F12, ThermoFisher SKU#12634-010) supplemented with 1× N2 supplement (ThermoFisher Catalog#17502048) and […] B27 supplement (ThermoFisher Catalog#17504044), along with 2 mM Glutamax (ThermoFisher Catalog#35050061), 1× Pennicillin-Streptomycin (ThermoFisher Cat#15140122) and 0.05% Bovine Serum Albumin (BSA; Sigma product# A9647). BSA was weighed and dissolved in DMEM F/12 media before being passed through a SteriFlip 0.22 uM filter (Millipore Item# EW-29969-24) and being added to basal media. Media was stored at 4 degrees Celsius for up to 1 month. On the day of use, basal media was aliquoted and 50 ug/mL Ascorbic acid and 0.4 uM Monothioglycerol was added. […]

B1: Recombinant Human Fibroblast Growth Factor 7 (protein, UniProt P21781 32-194, looked up)
Fibroblast growth factor 7: CNDMTPEQMATNVNCSSPERHTRSYDYMEGGDIRVRRLFCRTQWYLRIDKRGKVKGTQEMKNNYNIMEIRTVAVGIVAIKGVESEFYLAMNKEGKLYAKKECNEDCNFKELILENHYNTYASAKWTHNGGEMFVALNQKGIPVRGKKTKKEQKTAHFLPMAIT
notes: Recombinant human growth factor from R&D systems, used at 10 ng/mL unless otherwise noted
Regarding B1, the “Growth of human fetal lung buds in vitro” value in experiment [1] was “robust growth in vitro after 2 and 4 weeks, but resulted in reduced growth after 6 weeks; also recorded: supported an initial expansion of buds, but the tissue stopped expanding beyond the 4 week period”. For the same molecule, the Bud growth entry in experiment [2] (FGF7 1 ng/mL, 3 and 5 days in vitro) is reported as “very modest growth”; in experiment [2] (FGF7, all other conditions above 1 ng/mL, 5 days in vitro) it was “robust growth”. Also, in experiment [2] (individual growth factor in basal media, FGF7 10 ng/mL, up to two weeks), the “Growth, expansion and survival of isolated buds” value is on record as “promoted growth, expansion a survival of isolated buds for up to two weeks”.
